Measured values: patent publication US20070118934A1

Columns and labels:
[1] = biological target: mouse (anti-human ICAM) monoclonal antibody
[2] = biological target: human rhinovirus serotype HRV-39
[3] = biological target: human rhinovirus serotype HRV-39; assay: cell-based or functional assay

Substance | IC50 (read off the curve) [1] [µg/mL] | IC50 (read off the curve) [2] [nM] | IC50, cytopathic effect (CPE) assay, HRV-39 on HeLa S3 cells [3] [µg/mL] | fold lower IC50 than soluble ICAM-1, CPE assay [3] [fold]
soluble human ICAM-1 (from UniProt P05362 28-480) (receptor) | 0.8 | 40 | 1.35 | –
IC1-5D/IgA (ICAM/IgA fusion, gift of Dr. Tim Springer; Martin et al. 1993) (from UniProt P05362 28-480; P01876 103-353) (Fc fusion) | – | – | 0.12 | 11.3
ICAM-IgA (Fc fusion) | – | 3 | – | –
